Source: publication PMC2693666 (PLoS ONE, 2009)

B1: recMoPrP(89–230) (domain or fragment)
chain: not shown
B2: recMoPrP(23–230) (natural protein)
chain: not shown
B3: recMoDpl(26–155) (domain or fragment, mouse, UniProt Q9QUG3 26-155, looked up)
chain: ARGIKHRFKWNRKVLPSSGGQITEARVAENRPGAFIKQGRKLDIDFGAEGNRYYAANYWQFPDGIYYEGCSEANVTKEMLVTSCVNATQAANQAEFSREKQDSKLHQRVLWRLIKEICSAKHCDFWLERG
notes: also called recDpl

Tests used:
Assay in all cases: SPR; Biacore 2000, 20°C; […] (10 mM HEPES, 150 mM NaCl), pH 7.4, 20 µL/min; 1:1 (Langmuir) model
Conditions in all cases: both partners purified
[1] = target: B3
[2] = target: B2
[3] = target: B1

| Binder | stoichiometry N [1] | Kd [2] [nM] | koff [2] [s⁻¹] | kon [2] [M⁻¹ s⁻¹] | Kd [3] [nM] | koff [3] [s⁻¹] | kon [3] [M⁻¹ s⁻¹] |
| --- | --- | --- | --- | --- | --- | --- | --- |
| B1 | 1 |  |  |  |  |  |  |
| B2 | 1 |  |  |  |  |  |  |
| B3 |  | 11 | 0.0013 | 120000 | 100 | 0.00087 | 8400 |
